Key:
[1] = release/dissolution test of BSA particles in distilled water, quantitative determination by UV spectrophotometry; format: physicochemical; details: ambient temperature, FIG. 19
Method: This time, a heat-sensitive protein, BSA (Bovine Serum Albumin), the mean diameter of which, measured by particle size determination, is 85.6 μm, is coated according to FIG. 2 of the process according to the present invention. 3 g of BSA are placed in the system for injection by CO2 and 3 g of Precirol® are placed in the autoclave. The supercritical medium conditions are 110 bar and 50° C. for a dissolution time of 30 minutes. The pressure for injection of the BSA particles is 80 bar. Once coinjection has been carried out, the coated particles are quantitatively determined by UV spectrophotometry (FIG. 19). While the crude BSA is completely dissolved in distilled water at ambient temperature after 5 minutes, the protein coated with Precirol® (BSA 1 test) for its part takes close to 30 minutes in order to be completely dissolved in distilled water at ambient temperature.

[2] = release/dissolution test of pseudoephedrine particles in distilled water, quantitative determination by UV spectrophotometry; format: physicochemical; details: ambient temperature, FIG. 18

| Molecule | time to complete dissolution [1] [min] | time to complete dissolution [2] [min] |
| --- | --- | --- |
| crude BSA: heat-sensitive protein, BSA (Bovine Serum Albumin), uncoated | 5 | – |
| CN[C@@H](C)[C@@H](O)c1ccccc1 [crude pseudoephedrine, pseudoephedrine] | – | 10 |

— patent US20080102275A1, “Method For Coating Powders” (priority 2004, published 2008)
